Patent US12723255B2, “Herbicide tolerance genes and methods of use thereof” (priority 2014, dated 2026)
Positions count from the first letter of the chain named. Read-outs that look alike come from different tables or passages of the source.

B1: MON-HT14: engineered oxygenase protein, amino acid sequence SEQ ID NO:48 (protein)
chain: MHAALTPLTNKYRHIDVQPLTGVLGAEITGVDLREPLDDSTWNEILDAFHTYQVIYFPGQAITNEQHIAFSRRFGPVDPVPILKSIEGYPEVQMIRREANESSRYIGDDWHADSTFLDAPPAAVVMRAIEVPEYGGDTGFLSMYSAWETLSPTMQATIEGLNVVHSATKVFGSLYQATNWRFSGTSVKVMDVDAGDRETVHPLVVTHPVTGRRALYCNQVYCQKIQGMTDAESKSLLQFLYEHATQFDFTCRVRWKKDQVLVWDNLCTMHRAVPDYAGKFRYLTRTTVAGDKPSR
B2: MON-HT18: engineered oxygenase protein, amino acid sequence SEQ ID NO:52 (protein)
chain: B1 chain with G184N
B3: MON-HT52: engineered oxygenase protein, amino acid sequence SEQ ID NO:4 (protein)
chain: MHAALSPLSQRFERIAVQPLTGVLGAEITGVDLREPLDDSTWNEILDAFHTYQVIYFPGQAITNEQQIAFSRRFGPVDPVPLLKSIEGYPEVQMIRREANESGRVIGDDWHTDSTFLDAPPAAVVMRAIDVPEHGGDTGFLSMYTAYDALSDGLKKLISGLNVVHSATRVFGSLYQAQNRRFSNTSVKVMDVDAGDRETVHPLVVTHPGSGRKGLYVNQVYCQRIEGMSEKESEPLLSFLFAHATKPEFTCRVRWKKDQVLVWDNLCTMHYAINDYHGQTRILHRTTVGGVRPAR
B4: MON-HT53: engineered oxygenase protein, amino acid sequence SEQ ID NO:7 (protein)
chain: B3 chain with D38S, Q67H, T112S
B5: MON-HT54: engineered oxygenase protein, amino acid sequence SEQ ID NO:9 (protein)
chain: B3 chain with Q67H, I106L, D193A, A194D, L261V

Tests used:
[1] = system: transgenic soybean plants; assay: R0 soybean 2,4-D spray test of 2,4-D optimized variants; format: in vivo; settings: for tolerance to 2,4-D treatment: 2× application rate, soy
From the text: An additional five engineered proteins optimized for activity for 2,4-D were then selected for analysis in transgenic soybean. DNA constructs were produced for expressing MON-HT13 (SEQ ID NO:47), MON-HT14 (SEQ ID NO:48), MON-HT15 (SEQ ID NO:49), MON-HT17 (SEQ ID NO:51), and MON-HT18 (SEQ ID NO:52) with codon usage optimized for dicot expression. The operably linked expression elements (promoter, leader, intron, CTP, and 3′UTR) were identical in all of the constructs. Leaf samples were taken from R0 plantlets and single copy plants were identified using a PCR-based assay. When the single-copy R0 plants had approximately two to three trifoliate leaves, they were treated with either 1.5 lb ae/acre (2×) or 3.0 lb ae/acre (4×) of 2,4-D. Seven days after herbicide application, the plants were scored for herbicide injury based on the percent area of the plant showing injury, as indicated above.

[2] = enzyme kinetic measurements with purified protein; format: biochemical; settings: for Km: 0-1280 uM substrate; for Vmax Fenoxaprop / Vmax Fluazifop / Vmax Haloxyfop / Vmax Quizalofop-P: relative values
Method: (§1) The high-throughput herbicide degradation enzyme assay was designed to assay the enzymatic activity of the engineered proteins towards various herbicides using crude bacterial extract. The engineered protein's oxygenase activity (that is, its enzymatic activity) was measured by an end point colorimetric assay utilizing detection of phenol products through measurement of absorbance at 510 nm from 4-aminoantipyrine and potassium ferricyanide. This assay was based on the assay described in Fukomori and Hausinger, Journal of Biological Chemistry (1993) 268(32):24311-24317. Enzyme reactions were assayed in 96-well plates in a total volume of 150ul that contained: 20 mM MOPS pH 6.75, 50-200 uM NH4FeSO4, 50-200 uM sodium ascorbate, 1 mM alpha-ketoglutarate (aKG), 10 ul of E. coli cell lysate containing expressed engineered protein, and substrate (either an AOPP herbicide or phenoxy acid herbicide). […] Absorbance measurements were made on a standard laboratory spectrometer. Assays were scaled as needed to enhance throughput. Standard curves were generated using purified protein or product standards.
Further protein characterization, such as Km, Vmax, and crystal structure analysis, was performed using the five engineered proteins from Table 2. For this detailed analysis, purified protein was prepared as follows: 2 ml overnight cultures of E. coli expressing a transgene encoding a given MON-HT protein were used to inoculate 500 ml of broth and grown at 37° C. for 4 hours followed by culture at 15° C. for approximately 36 hours. Then 250 ml of the 500 ml bacterial culture was pelleted by centrifugation and resuspended in 25 ml of extraction buffer (20 mM Tris, pH 7.8, 300 mM NaCl, 5 mM beta-mercaptoethanol (BME), 20 mM imidazole (Fluka/Sigma-Aldrich, St. Louis, MO), 125 units/ml of benzonase and 10K units/ml of lysozyme (Novagen, Darmstadt, Germany). The cell slurry was passed through a cell disruptor once at 20000 psi and then this cell lysate was clarified by centrifugation at 35,000×g for 20 min at 4° C. The supernatant containing the soluble His-tagged proteins was used for protein purification. For this purification, the supernatant was applied to a 1 ml HisTrap™ FF column (Nickel Sepharose) (GE Healthcare, Piscataway, NJ) using an AKTaxpress™ system (GE Healthcare, Piscataway, NJ) following the standard manufacturer's protocol. The wash buffer consisted of: 20 mM Tris pH 7.8, 300 mM NaCl, 20 mM imidazole and 5 mM BME. The composition of elution buffer was the same as the wash buffer except with 500 mM imidazole. The eluate from the nickel column was desalted on a Quick Spin Protein Sephadex G-25 fine column (Roche Applied Science, Indianapolis, IN) following the manufacturer's protocol. The eluted protein was in buffer consisting of: 20 mM Tris pH 7.8, 50 mM NaCl and 5 mM BME. Protein extract purity was assessed by SDS-PAGE analysis. Protein concentration was determined by Bradford assay using Bio-Rad Protein Assay dye reagent (Biorad, Hercules, CA, cat no 500-0006).
Purified protein for the five engineered proteins was analyzed using the enzyme assay described in this Example 1, but with four different AOPP herbicides as substrates: quizalofop-P, haloxyfop, fenoxaprop, and fluazifop. Standard curves were generated using 2,4-dichlorophenol (2,4-DCP), which was used to produce a general phenol standard curve. The amount of phenol generated in the assay by the engineered proteins was calculated based on this standard curve. The controls were purified wild-type enzyme, no enzyme, and no substrate. Enzyme kinetic measurements of the five engineered proteins was done using 0, 20, 40, 80, 160, 320, 640, or 1280 uM of quizalofop-P, haloxyfop, fenoxaprop, or fluazifop herbicides.

[3] = high-throughput enzyme assay with crude bacterial extract; format: biochemical; settings: relative to wild-type RdpA; for Average quizalofop-P activity: average of replicates
Method: The high-throughput bacterial protein expression was achieved by synthesizing a recombinant DNA molecule encoding each engineered protein and cloning this into a bacterial expression vector with a C-terminal histidine tag (His-tag) operably linked to the recombinant DNA molecule. The vectors were used to transform Escherichia coli (E. coli), and bacterial expression of the engineered proteins was induced. Overnight E. coli cultures were grown in 96-well plates and the cultures were centrifuged to pellet the bacteria. The bacterial pellets were lysed by adding 100 ul lysis master mix (10 ml of Bacteria Protein Extraction Reagent (B-PER®) II (Pierce Biotechnology, Rockford, IL; cat. no. 78260); 10 ul Lysozyme (10 ug/ml final; Lysozyme American Bioanalytical, Natick, MA; cat. no. AB011780-00005); and 40 ul Benzonase® Nuclease (100 Units/ml final, Novagen, Darmstadt, Germany; cat no 71206-3)) to each well. The plates were vortexed then incubated for 30 minutes at 4° C. 400 ul of MOPS buffer (pH 6.57) was added to cach well and the debris pelleted by centrifugation. The lysate supernatant was carefully removed and used as the crude bacterial extract for subsequent enzymatic analysis.
as §1
Using this high-throughput bacterial protein expression and enzyme assay system, activities of approximately 1200 engineered proteins were measured relative to the activity of a selected wild-type protein, RdpA. In a 96 well plate assay, there were 3 controls (crude bacterial extract without an engineered protein) and 3 positive controls (crude bacterial extract with wild-type protein). The absorbance of the wells was measured and the protein activity was calculated using the following formula:
[formula] where, Activityi is the activity of the sample, Absorbancei is the absorbance of the sample, AbsorbanceWT is the absorbance of the wells containing extract from E. coli expressing the wild-type enzyme, and AbsorbancepET is the absorbance of the wells containing extract from E. coli without an engineered protein. Activity for each unique engineered protein was measured in duplicate and was reported as an average of the two measurements.
Using the information learned from the first assays, protein engineering was then done as described previously to produce additional engineered proteins, which were tested as described in this Example 1. The results of the high-throughput enzyme assay with quizalofop-P as the substrate for five of these additional engineered proteins are provided in Table 2.

[4] = 2,4-D rate 2X (1.5 lb ae/acre), single copy R0 soy, seven days after application

Molecule	Events with <20% injury [1, 4]	tolerance to 2,4-D treatment [1]	Events with 20-50% injury [1, 4]	Km ([2]; read-out: Km Fenoxaprop) [µM]	Km ([2]; read-out: Km Fluazifop) [µM]	Km ([2]; read-out: Km Haloxyfop) [µM]	Km ([2]; read-out: Km Quizalofop-P) [µM]	Vmax Fenoxaprop [2]	Vmax Fluazifop [2]	Vmax Haloxyfop [2]	Vmax Quizalofop-P [2]	Replicate 1 quizalofop-P activity [3]	Replicate 2 quizalofop-P activity [3]	Replicate 3 quizalofop-P activity [3]	Average quizalofop-P activity [3]
B1	9	excellent tolerance	–	–	–	–	–	–	–	–	–	–	–	–	–
B2	11	excellent tolerance	1	–	–	–	–	–	–	–	–	–	–	–	–
B3	–	–	–	490	14	280	420	420	43	45	39	92.17	54.46	89.75	78.79
B4	–	–	–	1100	1	290	690	640	40	64	95	105.34	105.31	106.13	105.60
B5	–	–	–	2100	–	380	560	630	–	40	32	131.85	149.77	130.56	137.39
